In patent US20170174769A1 (Regeneron, published 2017):

T1: extracellular domain of human KLB expressed with C-terminal HA and hexahistidine tags (human, UniProt Q86Z14 1-996)
T1 construct: also called hKLB-HA-6His; hKLB-HA-6his
T1 sequence: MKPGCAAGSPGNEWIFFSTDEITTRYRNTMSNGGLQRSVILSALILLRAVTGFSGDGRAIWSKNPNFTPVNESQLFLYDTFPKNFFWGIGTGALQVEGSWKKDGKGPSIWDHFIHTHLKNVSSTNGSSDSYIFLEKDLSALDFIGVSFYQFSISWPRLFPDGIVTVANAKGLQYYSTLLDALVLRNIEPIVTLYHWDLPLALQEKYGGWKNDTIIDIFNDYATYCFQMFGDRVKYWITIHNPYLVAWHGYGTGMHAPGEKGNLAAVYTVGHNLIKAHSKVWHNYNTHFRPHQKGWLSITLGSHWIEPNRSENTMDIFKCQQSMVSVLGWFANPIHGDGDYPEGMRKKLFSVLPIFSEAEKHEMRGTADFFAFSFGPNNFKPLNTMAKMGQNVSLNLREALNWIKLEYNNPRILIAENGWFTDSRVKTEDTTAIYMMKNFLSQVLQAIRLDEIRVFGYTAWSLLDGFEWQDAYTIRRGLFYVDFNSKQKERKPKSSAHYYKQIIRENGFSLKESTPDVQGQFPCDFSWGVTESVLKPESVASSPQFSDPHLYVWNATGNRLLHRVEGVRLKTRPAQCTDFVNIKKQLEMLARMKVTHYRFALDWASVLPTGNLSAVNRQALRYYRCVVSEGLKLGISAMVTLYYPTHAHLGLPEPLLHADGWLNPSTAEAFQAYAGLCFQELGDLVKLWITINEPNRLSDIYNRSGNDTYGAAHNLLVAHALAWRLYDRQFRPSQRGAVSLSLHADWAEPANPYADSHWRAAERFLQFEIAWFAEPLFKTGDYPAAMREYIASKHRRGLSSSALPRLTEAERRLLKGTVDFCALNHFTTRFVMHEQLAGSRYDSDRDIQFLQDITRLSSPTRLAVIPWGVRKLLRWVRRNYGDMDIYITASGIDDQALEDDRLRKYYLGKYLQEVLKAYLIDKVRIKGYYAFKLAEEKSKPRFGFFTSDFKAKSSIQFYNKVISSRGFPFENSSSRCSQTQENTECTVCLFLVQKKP

T2: extracellular domain of human FGFR1c expressed with C-terminal V5 and hexahistidine tags (human, UniProt P11362 22-376)
T2 construct: also called hFGFR1c-V5-6His
T2 sequence: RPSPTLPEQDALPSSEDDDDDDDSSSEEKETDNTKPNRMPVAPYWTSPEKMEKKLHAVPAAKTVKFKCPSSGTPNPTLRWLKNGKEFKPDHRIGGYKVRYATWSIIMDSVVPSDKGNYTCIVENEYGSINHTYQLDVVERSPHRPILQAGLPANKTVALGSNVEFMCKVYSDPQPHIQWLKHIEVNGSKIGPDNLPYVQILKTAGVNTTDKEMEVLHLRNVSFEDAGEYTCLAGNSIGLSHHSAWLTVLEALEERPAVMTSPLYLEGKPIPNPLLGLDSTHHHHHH


Tests used:
[1] = target: M. fascicularis KLB and human FGFR1c co-expressed on HEK293/MfKLB/hFGFR1c/SRE-Luc cells (M. fascicularis; human, UniProt A0A2K5WB58 1-1044); assay: cell-based or functional assay
[2] = target: T1, extracellular domain of human KLB …; assay: SPR, mAb captured, 37 C
Procedure: (§1) Equilibrium dissociation constants (KD values) for human KLB or human FGFR1c binding to purified anti-KLB/FGFR1c monoclonal antibodies were determined using a real-time surface plasmon resonance biosensor using a Biacore T-200 or 4000 instrument. The Biacore sensor surface was derivatized by amine coupling with either a polyclonal rabbit anti-mouse antibody (GE, # BR-1008-38) or with a monoclonal mouse anti-human Fc antibody (GE, # BR-1008-39) to capture anti-KLB/FGFR1c monoclonal antibodies expressed with either a mouse Fc or a human Fc, respectively. All Biacore binding studies were performed in a buffer composed of 0.01M HEPES pH 7.4, 0.15M NaCl, 3mM EDTA, 0.05% v/v Surfactant P20 (HBST running buffer). […] Association of hKLB-HA-6His or hFGFR1c-V5-6His to the captured monoclonal antibody was monitored for 3.5 to 4 minutes and the dissociation of hKLB-HA-6His or hFGFR1c-V5-6His in HBST running buffer was monitored for 8-12 minutes. All the binding kinetics experiments were performed at 25° C. or 37° C. Kinetic association (kₐ) and dissociation (kd) rate constants were determined by fitting the real-time sensorgrams to a 1:1 binding model using Scrubber 2.0c curve fitting software. Binding dissociation equilibrium constants (KD) and dissociative half-lives (t½) were calculated from the kinetic rate constants as: […]

[3] = target: T2, extracellular domain of human FGFR1c …; assay: SPR, mAb captured, 37 C
Procedure: as §1

[4] = target: T3, human KLB and human FGFR1c co-expressed on HEK293/hKLB/hFGFR1c/SRE-luc cells (human, UniProt Q86Z14 1-1044; P11362 22-822); assay: cell-based or functional assay
[5] = target: T3, human KLB and human FGFR1c co-expressed …; assay: cell-based or functional assay; remark: listed apart in the source
[6] = target: mouse KLB and mouse FGFR1c co-expressed on HEK293/mKLB/mFGFR1c/SRE-Luc cells (mouse); assay: cell-based or functional assay
[7] = target: T3, human KLB and human FGFR1c co-expressed …; assay: cell-based or functional assay; remark: listed apart in the source
Target sequence in this assay (P11362 other isoform, or with tags, fused parts or gaps limits assumed): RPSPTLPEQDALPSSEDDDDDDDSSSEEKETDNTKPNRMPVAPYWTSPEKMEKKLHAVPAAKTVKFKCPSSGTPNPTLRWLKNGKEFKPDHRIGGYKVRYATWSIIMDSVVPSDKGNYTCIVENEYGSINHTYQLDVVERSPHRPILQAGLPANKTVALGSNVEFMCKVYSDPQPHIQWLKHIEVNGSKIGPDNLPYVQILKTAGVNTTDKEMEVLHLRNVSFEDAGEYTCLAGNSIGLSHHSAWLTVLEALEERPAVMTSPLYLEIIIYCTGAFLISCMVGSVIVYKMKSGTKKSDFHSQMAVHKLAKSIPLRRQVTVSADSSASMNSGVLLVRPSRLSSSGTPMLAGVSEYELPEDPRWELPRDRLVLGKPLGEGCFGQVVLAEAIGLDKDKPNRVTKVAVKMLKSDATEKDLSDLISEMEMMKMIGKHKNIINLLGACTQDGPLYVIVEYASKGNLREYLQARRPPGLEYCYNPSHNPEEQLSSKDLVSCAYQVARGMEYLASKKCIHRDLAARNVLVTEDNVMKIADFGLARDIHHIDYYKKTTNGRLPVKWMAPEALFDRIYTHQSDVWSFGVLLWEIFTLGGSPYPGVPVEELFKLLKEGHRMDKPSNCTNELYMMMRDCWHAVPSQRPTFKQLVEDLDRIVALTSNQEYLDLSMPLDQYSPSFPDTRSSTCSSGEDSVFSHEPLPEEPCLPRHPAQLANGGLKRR

| EC50, SRE-luc activation without ligand [1] | IC50, inhibition of 10 nM mfFGF21 [1] | Maximum Activation (%) without ligand [1] | Maximum Inhibition (%) of 10 nM mfFGF21 [1] | 20 nM hKLB-HA-6His Bind (RU) [2] | 180 nM hFGFR1c-V5-6His Bind (RU) [3] | EC50, SRE-luc activation without ligand [4] | Maximum Activation (%) without ligand [4] | IC50, inhibition of 1 nM hFGF21 [5] | Maximum Inhibition (%) of 1 nM hFGF21 [5] | Kd [2] | koff [2] | kon [2] | t1/2 [2] | Maximum Inhibition (%) of 0.8 nM mFGF21 [6] | Binder | further results |
| --- | --- | --- | --- | --- | --- | --- | --- | --- | --- | --- | --- | --- | --- | --- | --- | --- |
| 180 pM | 790 pM | 5% | 91% | -0.5 RU | 0.3 RU | 300 pM | 6% | 650 pM | 91% |  |  |  |  |  | H4H8856P (antibody, V domains shown, human IgG4 Fc (H4H prefix)) VH: QVQLQESGPGLVKPSETLSLTCTVSGGSISSYYWSWIRQPPGKGLEWIAYIYYSGITKYNPSLKSRVTISADTSKNQFSLKLSSVTAADTAVYYCARHGIFGVMEYFQRWGQGTLVTVSS VL: DIQMTQSPSSLSASIGDRVTITCQASQDISNFLNWYQQKPGKAPTLLIYDVSNMETGVPSRFSGSGYGTDFTLTISSLKPEDIATYYCQQYDNIPLTFGGGTKVEIK |  |
| 130 pM | 390 pM | 4% | 92% | -0.9 RU | -1.4 RU | 180 pM | 5% | 380 pM | 92% |  |  |  |  |  | H4H8871P (antibody, V domains shown, human IgG4 Fc (H4H prefix)) VH: QVQLQESGPGLVKPSETLSLTCTVSGASISSYYWSWIRQPPGKGLEWIGYIYSSGIIKYNPSLKSRVTISADTSKNQFSLKLSSVTAADTAVYYCARHGIFGVMEYFQRWGQGTLVTVSS VL: DIQMTQSPSSLSASIGDRVTITCQASQDIGNFLNWYHQKPGKAPTLLIYDASNMETGVPSRFRGSGSGTYFTFIISSLQPEDVATYYCQQYDNLPLTFGGGTKVEIK |  |
|  | 120 pM |  | 38% | 101 RU | 0.8 RU | 410 pM | 1% | 230 pM | 38% | 0.305 nM | 0.000241 s⁻¹ | 790000 M⁻¹ s⁻¹ | 48 min |  | H4H8878P (antibody, V domains shown, human IgG4 Fc (H4H prefix)) VH: QVQLVESGGGVVQPGRSLRLSCAASGFTLNTYGMHWIRQTPGKGLEWVSLISYDETKEYYVDSVKGRFTISRDNSKNTLYLQMNSVRVEDTAVYYCAKPLTGSTDYYYGLDVWGQGTTVTVSS VL: DIQMTQSPSYVSASVGDRVIITCRASQDISSWLAWYQQKPGKAPKLLIYVTSSLESGVPSRFSGSGSGTDFTLTISGLQPEDFATYYCQQVKSFPPTFGPGTKVDIK |  |
|  | 2300 pM |  | 104% | -2.3 RU | -1.3 RU | 3600 pM | 1% | 1500 pM | 106% |  |  |  |  | 90% | H2aM8091N (antibody, V domains shown, mouse IgG2 Fc (H2aM prefix); also called H2M8091N) VH: QVQLVQSGADMKKPGASVKVSCKASGYTFTTYGINWVRQAPGQGLEWMGWISAYSGITNYAQSFQGRVTMTTDTSTSTAYMELRSLRSDDTAVYYCARGGYNWATGDYFDYWGQGTLVTVSS VL: DIQMTQSPSTLSASIGDRVTITCRASQSISSWLAWYQQKPGKAPKFLIYKASSLASGVPSRFSGSGSGTEFTLTISSLQPDDFATYYCQQYDSYSPYTFGQGTKVEIK |  |
|  | 120 pM |  | 39% | 148 RU | 0.1 RU | 54 pM | 1% | 150 pM | 39% | 0.945 nM | 0.000526 s⁻¹ | 556000 M⁻¹ s⁻¹ | 22 min | 16% | H4H8880P (antibody, V domains shown, human IgG4 Fc (H4H prefix)) VH: EVQLVESGGGVVQPGGSLRLSCAASGFTFSLYAMSWVRQAPGKGLEWVSAISGSAHGAYYADSVKGRFTISRDNSKNSLYLQMNSLRAEDTAIYYCAKDLVIAVAGTFDYWGQGTLVTVSS VL: DIQMTQSPSSLSASVGDRVTITCRASQIISTYLNWYQQKPGKAPKILIYTASSLKSGVPSRFSGSGSGTDFTLTISSLQPEDFATYYCQQTYSSPRFTFGPGTKVDIK | Maximum Activation (%) without ligand [6]: 2% |
| 20 pM | 46 pM | 3% | 77% | 101 RU | 0 RU | 72 pM | 7% | 67 pM | 77% | 0.32 nM | 0.000463 s⁻¹ | 1.45e+06 M⁻¹ s⁻¹ | 24.9 min |  | H4H8881P (antibody, V domains shown, human IgG4 Fc (H4H prefix)) VH: QVQLVQSGAEVKKPGASVKVSCKASGYTFTSYVIHWVRQAPGQRLEWMGWSNAANGDTKYSQEFQDRVTFTRDTSASTAYMELSSLRSEDMAVYYCARWNWNYGAFDIWGQGTMVTVSS VL: DIQMTQSPSSLSASVGDRVTITCQASQDINNYLHWYQQKSGKAPNLLIYDASILETGVPSRFSGSGSGTDFTFTISSLQPEDIATYYCQQYDNLPYTFGQGTKLEIK |  |
|  | 5200 pM |  | 101% | 1.9 RU | 0.7 RU | 19000 pM | 1% | 970 pM | 101% |  |  |  |  | 50% | H1H8897P (antibody, V domains shown, H1H Fc prefix (human Fc)) VH: QVQLVESGGGLVKPGGSLRLSCAAAGFTFSDYYMSWIRQAPGQGLEWVSYISPSGSTTYYADSVQGRFTISRDNAKSSLYLQMNSLRAEDTAVYYCARTGIQLWSVYFDYWGQGTLVTVSS VL: not shown | Maximum Activation (%) without ligand [6]: 3% |
|  |  |  |  | -0.8 RU | 10.6 RU |  |  |  |  |  |  |  |  |  | H4H8870P (antibody, V domains shown, human IgG4 Fc (H4H prefix)) VH: EVQLVESGGGVVRPGGSLRLSCAASGFKFDVYGMSWVRQLPGKGLEWVSGISWTGGSSGYADSVKGRFTISRDNGKKSLYLQMNSLRAEDTALYYCTREEDYWGQGTLVTVSS VL: not shown | Maximum Inhibition (%) [7]: 10%; Kd [3]: 301 nM; koff [3]: 0.0795 s⁻¹; kon [3]: 264000 M⁻¹ s⁻¹; t1/2 [3]: 0.1 min |
